The values below come from PMC6389893.

What all share (assay): pull-down; GST fusion proteins (2 µg) on agarose beads, nuclease-treated, with in vitro translated [35S]-TRIM33; NETN buffer (20 mM Tris HCl pH 7.5, 100 mM NaCl, 1 mM EDTA, 0.5% NP-40, 1 mM DTT) with 200 µg/ml ethidium bromide, 1 h at 4 °C; phosphoimaging, bound as percent of input
The target in test [1] is GST-IN C-terminal domain (HIV-1).
Test [2] has as its target GST-IN N-terminal domain (HIV-1).
For test [3], the target named is GST-IN catalytic core domain (HIV-1).
In test [4] the target is GST-IN full length (HIV-1).

B1: in vitro translated [35S]-TRIM33 (natural protein)
chain: MAENKGGGEAESGGGGSGSAPVTAGAAGPAAQEAEPPLTAVLVEEEEEEGGRAGAEGGAAGPDDGGVAAASSGSAQAASSPAASVGTGVAGGAVSTPAPAPASAPAPGPSAGPPPGPPASLLDTCAVCQQSLQSRREAEPKLLPCLHSFCLRCLPEPERQLSVPIPGGSNGDIQQVGVIRCPVCRQECRQIDLVDNYFVKDTSEAPSSSDEKSEQVCTSCEDNASAVGFCVECGEWLCKTCIEAHQRVKFTKDHLIRKKEDVSESVGASGQRPVFCPVHKQEQLKLFCETCDRLTCRDCQLLEHKEHRYQFLEEAFQNQKGAIENLLAKLLEKKNYVHFAATQVQNRIKEVNETNKRVEQEIKVAIFTLINEINKKGKSLLQQLENVTKERQMKLLQQQNDITGLSRQVKHVMNFTNWAIASGSSTALLYSKRLITFQLRHILKARCDPVPAANGAIRFHCDPTFWAKNVVNLGNLVIESKPAPGYTPNVVVGQVPPGTNHISKTPGQINLAQLRLQHMQQQVYAQKHQQLQQMRMQQPPAPVPTTTTTTQQHPRQAAPQMLQQQPPRLISVQTMQRGNMNCGAFQAHQMRLAQNAARIPGIPRHSGPQYSMMQPHLQRQHSNPGHAGPFPVVSVHNTTINPTSPTTATMANANRGPTSPSVTAIELIPSVTNPENLPSLPDIPPIQLEDAGSSSLDNLLSRYISGSHLPPQPTSTMNPSPGPSALSPGSSGLSNSHTPVRPPSTSSTGSRGSCGSSGRTAEKTSLSFKSDQVKVKQEPGTEDEICSFSGGVKQEKTEDGRRSACMLSSPESSLTPPLSTNLHLESELDALASLENHVKIEPADMNESCKQSGLSSLVNGKSPIRSLMHRSARIGGDGNNKDDDPNEDWCAVCQNGGDLLCCEKCPKVFHLTCHVPTLLSFPSGDWICTFCRDIGKPEVEYDCDNLQHSKKGKTAQGLSPVDQRKCERLLLYLYCHELSIEFQEPVPASIPNYYKIIKKPMDLSTVKKKLQKKHSQHYQIPDDFVADVRLIFKNCERFNEMMKVVQVYADTQEINLKADSEVAQAGKAVALYFEDKLTEIYSDRTFAPLPEFEQEEDDGEVTEDSDEDFIQPRRKRLKSDERPVHIK
modifications: [35S]-labeled
In the case of B1, the percent of radiolabeled input bound in test [1] was above 8.5%; in test [2] it was below 3%; in test [3] it was below 3%; in test [4] it was above 8.5%.
